One may read the IC50 as the concentration that gives 50% inhibition. Usually Kd stands for the constant that tells how readily two partners part at equilibrium.

These results are taken from the Immune Epitope Database (IEDB).

The target of assay [1] is HLA-A*11:01. Description: IEDB peptide-MHC binding, purified MHC/competitive/fluorescence; ≥ and ≤ were set here for values at or beyond the usual limits of such assays.
For a further assay, the target named is HLA-A*24:02. Described as above.
The next assay deals with HLA-B*53:01. Briefly: IEDB peptide-MHC binding, purified MHC/competitive/radioactivity; filed as Kd, often an IC50 or EC50 that approximates it; ≥ and ≤ were set here for values at or beyond the usual limits of such assays.
The target in a further assay is HLA-B*51:01. Described as above.
For a further assay, the target named is HLA-B*35:01. The assay is described as above.
The next assay addresses HLA-B*54:01. The description is as above.
For assay [2], the target named is HLA-B*07:02. The assay is described as above.
Assay [3] concerns the target HLA-A*01:01. The description is as above. Particulars: source organism: Dengue virus 1 Brazil/97-11/1997.
Assay [4] concerns the target HLA-A*26:01. The assay is described as above. Particulars: source organism: Dengue virus 1 Brazil/97-11/1997.
A further assay has as its target HLA-A*30:01. The description is as above. To be noted: source organism: Dengue virus 1 Brazil/97-11/1997.
In another assay the target is HLA-A*30:02. The description is as above. Particulars: source organism: Dengue virus 1 Brazil/97-11/1997.
Assay [5] has as its target HLA-B*15:01. Described as above. Particulars: source organism: Dengue virus 1 Brazil/97-11/1997.
The target in assay [6] is HLA-A*02:01. Briefly: IEDB peptide-MHC binding, purified MHC/competitive/fluorescence; ≥ and ≤ were set here for values at or beyond the usual limits of such assays. To be noted: source organism: Zaire ebolavirus.
In the next assay the target is HLA-B*57:01. Briefly: IEDB peptide-MHC binding, purified MHC/direct/fluorescence; filed as Kd, often an IC50 or EC50 that approximates it; ≥ and ≤ were set here for values at or beyond the usual limits of such assays. To be noted: source organism: Mammarenavirus lassaense.
In the next assay the target is HLA-B*15:17. Described as above. To be noted: source organism: Mammarenavirus lassaense.
The target in the next assay is HLA-B*58:01. The description is as above.
The target in a further assay is HLA-B*44:02. The description is as above.
For a further assay, the target named is HLA-B*27:05. The assay is described as above.
In another assay the target is HLA-B*08:01. The description is as above.
Assay [7] addresses HLA-A*01:01. The assay is described as above.
In the next assay the target is HLA-B*40:01. The description is as above.
In a further assay the target is HLA-A*24:03. The description is as above.
Another assay concerns the target HLA-A*69:01. The assay is described as above.
The target in assay [8] is HLA-A*11:01. The assay is described as above.
In another assay the target is HLA-A*31:01. The description is as above.
The target of assay [9] is HLA-A*26:01. Described as above.
The target in a further assay is HLA-A*03:01. The assay is described as above.
The target of assay [10] is HLA-B*07:02. Described as above.
The target of assay [11] is HLA-B*15:01. Described as above.
The target of assay [12] is HLA-A*02:01. The assay is described as above.
The mark [13] stands for this setting: source organism: Vaccinia virus.
[14] abbreviates: source organism: Mammarenavirus lassaense.
Where [15] appears, read: source organism: Mammarenavirus juninense.
Where [16] appears, read: source organism: Zaire ebolavirus.
Where [17] appears, read: source organism: Vaccinia virus WR.
[18] abbreviates: source organism: Triticum aestivum.
Where [19] appears, read: source organism: SARS coronavirus Tor2.
Where [20] appears, read: source organism: Dengue virus 3 Martinique/1243/1999.
The mark [21] stands for this setting: source organism: Salmonella enterica.
[22] abbreviates: source organism: Salmonella enterica subsp. enterica serovar Typhi.
Where [23] appears, read: source organism: Vibrio vulnificus.

As to EKSSKYYIK, the IC50 was not below 79 µM in the assay with HLA-A*11:01 [1] (setting [13]) and not below 145 µM in the assay with HLA-A*24:02 (setting [13]).

As for FPAGLTYSQL, the Kd with HLA-B*53:01 (setting [14]) came out at 0.111 µM; with HLA-B*51:01 (setting [14]), 8.28 µM; in the assay with HLA-B*35:01 (setting [14]), 0.115 µM; with HLA-B*54:01 (setting [14]), 0.603 µM; with HLA-B*07:02 [2] (setting [14]), 0.155 µM.

With FPAIFSAEV, the Kd was 0.0404 µM with HLA-B*53:01 (setting [14]); 0.0856 µM in the assay with HLA-B*51:01 (setting [14]); 0.0168 µM in the assay with HLA-B*35:01 (setting [14]); 0.00694 µM in the assay with HLA-B*54:01 (setting [14]); 0.0653 µM with HLA-B*07:02 [2] (setting [14]).

Take FTMAHRKPTY: the Kd in the assay with HLA-A*01:01 [3] turned out to be 9.16 µM; with HLA-A*26:01 [4] it was 0.476 µM; with HLA-A*30:01 it was 2.27 µM; with HLA-A*30:02 it was 0.744 µM; with HLA-B*35:01 (source organism: Dengue virus 1 Brazil/97-11/1997) it was 0.698 µM; with HLA-B*15:01 [5] it was 0.313 µM.

In the case of HPDMDSLMI, the Kd with HLA-B*53:01 (setting [15]) was 0.0796 µM; with HLA-B*51:01 (setting [15]) it was 2.9 µM; with HLA-B*35:01 (setting [15]), 2.01 µM; with HLA-B*54:01 (setting [15]) it was not below 23.2 µM; with HLA-B*07:02 [2] (setting [15]) it was 1.72 µM.

As for IIHDFVDKT, the IC50 is not below 148 µM with HLA-A*11:01 [1] (setting [16]), not below 287 µM in the assay with HLA-A*24:02 (setting [16]) and 14.1 µM with HLA-A*02:01 [6].

With KPVSDLYTSM, the Kd with HLA-B*53:01 (setting [17]) is 0.0566 µM; with HLA-B*51:01 (setting [17]) it was not below 69.6 µM; with HLA-B*35:01 (setting [17]), 0.0349 µM; in the assay with HLA-B*54:01 (setting [17]) it was 10.7 µM; in the assay with HLA-B*07:02 [2] (setting [17]) it was 0.000297 µM.

Regarding KSFLWTQSL, the results for the dissociation constant Kd with HLA-B*57:01, with HLA-B*15:17 and with HLA-B*58:01 (setting [14]) were 0.029 µM, not above 0.001 µM and 0.042 µM, respectively.

In the case of LPAMCNVYI, the Kd in the assay with HLA-B*53:01 (setting [18]) came to 0.0182 µM; in the assay with HLA-B*51:01 (setting [18]) it was 0.272 µM; with HLA-B*35:01 (setting [18]) it was 1.1 µM; with HLA-B*54:01 (setting [18]), 0.182 µM; with HLA-B*07:02 [2] (setting [18]), 0.685 µM.

LPESDLDKVY: the Kd with HLA-B*53:01 (setting [17]) was 0.513 µM; in the assay with HLA-B*51:01 (setting [17]), not below 54.1 µM; with HLA-B*35:01 (setting [17]), 0.079 µM; with HLA-B*54:01 (setting [17]), 10.6 µM; with HLA-B*07:02 [2] (setting [17]), not below 69.6 µM.

LPYPQPQL: the dissociation constant (Kd) stood at 14.9 µM with HLA-B*53:01 (setting [18]); 0.0323 µM with HLA-B*51:01 (setting [18]); 10.6 µM with HLA-B*35:01 (setting [18]); 1.39 µM in the assay with HLA-B*54:01 (setting [18]); 0.109 µM with HLA-B*07:02 [2] (setting [18]).

As to MPNMLRIMA, the Kd with HLA-B*53:01 (setting [19]) is 0.027 µM; with HLA-B*51:01 (setting [19]) it was 0.393 µM; with HLA-B*35:01 (setting [19]) it was 0.0117 µM; in the assay with HLA-B*54:01 (setting [19]), 0.000256 µM; with HLA-B*07:02 [2] (setting [19]), 0.0098 µM.

For MPVTAASAAQ, the Kd was not below 20.5 µM with HLA-B*51:01 (setting [20]) and 1.59 µM with HLA-B*35:01 (setting [20]).

In turn, PSVIEEWKK came in with an IC50 in the assay with HLA-A*11:01 [1] (setting [17]) not below 107 µM.

In the case of QPLSQVSF, the Kd in the assay with HLA-B*53:01 (setting [18]) is not below 37.5 µM; with HLA-B*51:01 (setting [18]) it was 12.6 µM; with HLA-B*35:01 (setting [18]), 15 µM; in the assay with HLA-B*54:01 (setting [18]) it was not below 87.7 µM; with HLA-B*07:02 [2] (setting [18]), 6.87 µM.

For the sequence QPYLQLQPFL, the dissociation constant Kd is not below 22 µM with HLA-B*53:01 (setting [18]); 0.15 µM in the assay with HLA-B*51:01 (setting [18]); 0.369 µM in the assay with HLA-B*35:01 (setting [18]); not below 23.4 µM with HLA-B*54:01 (setting [18]); 0.632 µM with HLA-B*07:02 [2] (setting [18]).

For QTDDGVRFT, the Kd is not below 20 µM in the assay with HLA-B*44:02 (setting [21]); not below 20 µM with HLA-B*27:05 (setting [21]); not below 20 µM with HLA-B*08:01 (setting [21]); 19.8 µM with HLA-A*01:01 [7] (setting [22]); not below 20 µM with HLA-B*40:01 (setting [21]); not below 20 µM in the assay with HLA-A*24:03 (setting [21]). Moreover, the dissociation constant (Kd) with HLA-A*69:01 (setting [22]) was 0.0703 µM; in the assay with HLA-A*11:01 [8] (setting [21]) it was not below 20 µM; with HLA-A*31:01 (setting [21]), not below 20 µM; with HLA-A*26:01 [9] (setting [21]) it was not below 20 µM; with HLA-B*58:01 (setting [21]), not below 20 µM; with HLA-A*03:01 (setting [21]), not below 20 µM. Moreover, the Kd with HLA-B*07:02 [10] (setting [21]), with HLA-B*15:01 [11] (setting [21]) and in the assay with HLA-A*02:01 [12] (setting [21]) was not below 20 µM in each case.

Regarding SPEGEETII, the Kd with HLA-B*53:01 (setting [17]) is 0.27 µM; in the assay with HLA-B*51:01 (setting [17]) it was 15.9 µM; with HLA-B*35:01 (setting [17]), not below 40.6 µM; in the assay with HLA-B*54:01 (setting [17]), not below 78.1 µM; with HLA-B*07:02 [2] (setting [17]) it was 11.1 µM.

With STDTRHIPQ, the Kd in the assay with HLA-B*44:02 (setting [23]) was not below 20 µM; in the assay with HLA-B*27:05 (setting [23]) it was not below 20 µM; with HLA-B*08:01 (setting [23]) it was not below 20 µM; in the assay with HLA-A*01:01 [7] (setting [23]) it was 4.41 µM; in the assay with HLA-B*40:01 (setting [23]) it was not below 20 µM; with HLA-A*24:03 (setting [23]), not below 20 µM. Moreover, the Kd with HLA-A*69:01 (setting [23]), in the assay with HLA-A*11:01 [8] (setting [23]), in the assay with HLA-A*31:01 (setting [23]), with HLA-A*26:01 [9] (setting [23]), with HLA-B*58:01 (setting [23]) and with HLA-A*03:01 (setting [23]) was not below 20 µM throughout. Moreover, the Kd in the assay with HLA-B*07:02 [10] (setting [23]), with HLA-B*15:01 [11] (setting [23]) and in the assay with HLA-A*02:01 [12] (setting [23]) was not below 20 µM throughout.

Regarding TNTTTEDHK, the IC50 with HLA-A*11:01 [1] (setting [16]) is not below 110 µM.

In the case of TTAAGPPKA, the IC50 with HLA-A*11:01 [1] (setting [16]) was determined as 40.6 µM; with HLA-A*02:01 [6] it was 11.7 µM.

Regarding YPDLNFDNTY, the Kd with HLA-B*53:01 (setting [17]) is 0.0222 µM; with HLA-B*51:01 (setting [17]), not below 69.6 µM; in the assay with HLA-B*35:01 (setting [17]), 0.0184 µM; with HLA-B*54:01 (setting [17]), 1.75 µM; with HLA-B*07:02 [2] (setting [17]) it was not below 69.6 µM.

For YPSMFTLRHI, the Kd with HLA-B*53:01 (setting [17]) came out at 0.000943 µM; with HLA-B*51:01 (setting [17]) it was 0.00258 µM; with HLA-B*35:01 (setting [17]), 0.446 µM; with HLA-B*54:01 (setting [17]) it was 0.0208 µM; in the assay with HLA-B*07:02 [2] (setting [17]), 0.0155 µM.
